Measured values: article doi:10.1101/2025.05.27.656304, “Structure of the conjugation surface exclusion protein TraT” (bioRxiv, 2025)

Target: the molecule itself
Assay: cryo-EM structure; purified TraT (12 mg/ml) in 100 mM Tris, 150 mM NaCl, 0.02% DDM, pH 8; global resolution 2.01 Å

B1: F plasmid TraT complex (Twin-Strep tagged recombinant TraT) (complex, Escherichia coli (F plasmid), UniProt P13979 22-244, looked up)
chain: CGAMSTAIKKRNLEVKTQMSETIWLEPASERTVFLQIKNTSDKDMSGLQGKIADAVKAKGYQVVTSPDKAYYWIQANVLKADKMDLRESQGWLNRGYEGAAVGAALGAGITGYNSNSAGATLGVGLAAGLVGMAADAMVEDVNYTMITDVQIAERTKATVTTDNVAALRQGTSGAKIQTSTETGNQHKYQTRVVSNANKVNLKFEEAKPVLEDQLAKSIANIL
modifications: lipid anchor on the N-terminal cysteine (density not resolved)
notes: TraT surface exclusion outer membrane lipoprotein of the E. coli F plasmid; the traT gene was cloned into a pET22b-derived vector; the protein in the structure begins at the lipidated N-terminal cysteine; Homodecamer by cryo-EM; also called TraTF; TraT-TS; copies: 10
- stoichiometry N: 10
